{
  "source": "patent US20260066079A1",
  "about": "(published 2026)",
  "data": [
    {"biological_target": "T1, TL1A in human blood (endogenous) (human, UniProt O95150 72-251, limits assumed)", "T1 sequence (looked up)": "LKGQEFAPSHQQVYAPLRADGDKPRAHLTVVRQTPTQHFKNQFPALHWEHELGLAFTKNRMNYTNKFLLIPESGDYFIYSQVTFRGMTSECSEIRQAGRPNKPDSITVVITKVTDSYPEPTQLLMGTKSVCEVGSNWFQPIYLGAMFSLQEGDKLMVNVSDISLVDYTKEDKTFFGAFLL", "test": "cell-based or functional assay", "units": {"% Inhibition at 1 nM Ig (inhibition of interferon gamma release in human blood)": "%", "% Inhibition at 10 nM Ig (inhibition of interferon gamma release in human blood)": "%"}, "values": [
      {"binder": "A147 (antibody, human IgG1, V domains shown) VH: QVQLVQSGAEVKKPGASVKVSCKASGFDIQDTYMHWVKQRPGQGLEWMGRIEPASGHIKYDPKFQGRVTMTRDTSTSTVYMELSSLRSEDTAVYYCARSGGLPDWWGQGTTVTVSS VL: EIVLTQSPGTLSLSPGERATLSCRASSSVSYMYWYQQKPGQAPRPLIYATSNLASGIPDRFSGSGSGTDFTLTISRLEPEDFAVYYCQQWEGNPRTFGGGTKLEIK", "% Inhibition at 1 nM Ig (inhibition of interferon gamma release in human blood)": 51.3, "% Inhibition at 10 nM Ig (inhibition of interferon gamma release in human blood)": 72.4},
      {"binder": "A212 (antibody, human IgG1, V domains shown) VH: QVQLVQSGAEVKKPGASVKVSCKASGFDIQDTYMHWVRQRPGQGLEWIGRIDPASGHTKYDPKFQVRATITTDTSTSTAYLELSSLRSEDTAVYYCARSGGLPDVWGQGTTVTVSS VL: EIVLTQSPGTLSLSPGERATLSCRASSSVSYMYWYQQKPGQAPRPLIYATSNLASGIPDRFSGSGSGTDFTLTISRLEPEDFAVYYCQQWEGNPRTFGGGTKLEIK", "% Inhibition at 1 nM Ig (inhibition of interferon gamma release in human blood)": 46.8, "% Inhibition at 10 nM Ig (inhibition of interferon gamma release in human blood)": 71.2},
      {"binder": "A213 (antibody, human IgG1, V domains shown) VH: QVQLVQSGAEVKKPGASVKVSCKASGFDIQDTYMHWVRQRPGQGLEWMGRIDPASGHTKYDPKFQVRVTITTDTSTSTVYMELSSLRSEDTAVYYCARSGGLPDVWGQGTTVTVSS VL: EIVLTQSPGTLSLSPGERATLSCRASSSVSYMYWYQQKPGQAPRPLIYATSNLASGIPDRFSGSGSGTDFTLTISRLEPEDFAVYYCQQWEGNPRTFGGGTKLEIK", "% Inhibition at 1 nM Ig (inhibition of interferon gamma release in human blood)": 48.6, "% Inhibition at 10 nM Ig (inhibition of interferon gamma release in human blood)": 69.8},
      {"binder": "A217 (antibody, human IgG1, V domains shown) VH: QVQLVQSGAEVKKPGASVKVSCKASGFDIQDTYMHWVKQRPGQGLEWMGRIDPASGHTKYDPKFQVRVTITRDTSTSTVYMELSSLRSEDTAVYYCARSGGLPDVWGQGTTVTVSS VL: EIVLTQSPGTLSLSPGERATLSCRASSSVSYMYWYQQKPGQAPRPLIYATSNLASGIPDRFSGSGSGTDFTLTISRLEPEDFAVYYCQQWEGNPRTFGGGTKLEIK", "% Inhibition at 1 nM Ig (inhibition of interferon gamma release in human blood)": 46, "% Inhibition at 10 nM Ig (inhibition of interferon gamma release in human blood)": 72.2},
      {"binder": "A219 (antibody, human IgG1, V domains shown) VH: QVQLVQSGAEVKKPGASVKVSCKASGFDIQDTYMHWVKQRPGQGLEWMGRIDPASGHTKYDPKFQVRVTITRDTSTSTVYLELSSLRSEDTAVYYCARSGGLPDVWGQGTTVTVSS VL: EIVLTQSPGTLSLSPGERATLSCRASSSVSYMYWYQQKPGQAPRPLIYATSNLASGIPDRFSGSGSGTDFTLTISRLEPEDFAVYYCQQWEGNPRTFGGGTKLEIK", "% Inhibition at 1 nM Ig (inhibition of interferon gamma release in human blood)": 59.8, "% Inhibition at 10 nM Ig (inhibition of interferon gamma release in human blood)": 75.2},
      {"binder": "A220 (antibody, human IgG1, V domains shown) VH: QVQLVQSGAEVKKPGASVKVSCKASGFDIQDTYMHWVKQRPGQGLEWMGRIDPASGHTKYDPKFQVRVTMTRDTSTSTAYLELSSLRSEDTAVYYCARSGGLPDVWGQGTTVTVSS VL: EIVLTQSPGTLSLSPGERATLSCRASSSVSYMYWYQQKPGQAPRPWIYATSNLASGIPDRFSGSGSGTDFTLTISRLEPEDFAVYYCQQWEGNPRTFGGGTKLEIK", "% Inhibition at 1 nM Ig (inhibition of interferon gamma release in human blood)": 36.9, "% Inhibition at 10 nM Ig (inhibition of interferon gamma release in human blood)": 63.2}
    ]}
  ]
}
